# According to paper PMC9385479, “GTSF1 accelerates target RNA cleavage by PIWI-clade Argonaute proteins” (Nature, 2022):
# T1: MIWI (PIWIL1), mouse, 3×Flag–SNAP-tagged recombinant, loaded with a synthetic piRNA (MIWI piRISC) (mouse, UniProt Q9JMB7 1-862, methylarginines (positions in Extended Data Fig. 1h))
# T1 construct: Mouse MIWI (PIWIL1); cDNA from the Mammalian Gene Collection; not shown: 3×Flag, N-terminal, kept; SNAP, N-terminal, kept
# T1 sequence (looked up): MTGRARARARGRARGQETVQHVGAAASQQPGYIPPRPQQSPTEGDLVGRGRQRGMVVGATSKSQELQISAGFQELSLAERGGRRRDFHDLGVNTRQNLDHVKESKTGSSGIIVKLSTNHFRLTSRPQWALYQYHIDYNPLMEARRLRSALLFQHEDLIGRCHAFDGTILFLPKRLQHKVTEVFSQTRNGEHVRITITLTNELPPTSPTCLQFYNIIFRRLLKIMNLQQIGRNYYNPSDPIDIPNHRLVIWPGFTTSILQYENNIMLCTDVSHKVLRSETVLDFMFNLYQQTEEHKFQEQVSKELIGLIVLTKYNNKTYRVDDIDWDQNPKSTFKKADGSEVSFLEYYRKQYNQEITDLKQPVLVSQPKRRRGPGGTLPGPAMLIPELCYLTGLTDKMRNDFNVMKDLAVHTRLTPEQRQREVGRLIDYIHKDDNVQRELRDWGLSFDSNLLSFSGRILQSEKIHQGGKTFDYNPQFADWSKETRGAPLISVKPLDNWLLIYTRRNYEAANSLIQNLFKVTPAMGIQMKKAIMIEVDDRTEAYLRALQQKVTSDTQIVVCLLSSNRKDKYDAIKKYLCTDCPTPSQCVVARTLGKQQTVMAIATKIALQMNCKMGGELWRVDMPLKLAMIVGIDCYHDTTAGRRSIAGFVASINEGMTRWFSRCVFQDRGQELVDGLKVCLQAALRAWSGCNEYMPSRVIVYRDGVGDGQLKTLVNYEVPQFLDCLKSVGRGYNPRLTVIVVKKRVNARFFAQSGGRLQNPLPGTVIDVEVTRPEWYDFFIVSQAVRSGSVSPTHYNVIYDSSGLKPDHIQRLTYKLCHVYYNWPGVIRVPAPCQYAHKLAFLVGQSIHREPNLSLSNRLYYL
# Tests used:
# [1] = target: MIWI (PIWIL1), mouse, 3×Flag–SNAP-tagged recombinant, loaded with a synthetic piRNA (MIWI piRISC) (mouse) (UniProt Q9JMB7)
# [2] = target: T1, MIWI (PIWIL1), mouse, …; assay: enzyme kinetics titration (pre-steady-state target-cleavage rate k_burst against GTSF1 concentration); k_burst of MIWI piRISC measured at 1–5,000 nM GTSF1 and fit to kburst=kpot[GTSF1]/(Kd+[GTSF1]); Kd is for the MIWI piRISC–target RNA ternary complex; details: both partners purified
Molecule,amount of target RNA cleaved by MIWI piRISC with 100 nM recombinant GTSF protein (fold increase) [1] [fold],Kd [2] [nM]
"BmGtsf1-like, Bombyx mori, V5SBP-tagged purified recombinant (natural protein)",2.6,
"Gametocyte specific factor 1 (GTSF1), mouse, wild type, purified recombinant (natural protein, UniProt Q9DAN6 1-167, looked up, Mouse GTSF1, tandem CHHC-type zinc-finger protein, printed mass 19,083 Da; cDNA synthesized at Twist Biosciences; Grown with 1 uM ZnSO4 (zinc-finger protein); also called wild-type GTSF1; MmGtsf1; source: E. coli Rosetta-Gami 2 (pCold-GST), purified (glutathione Sepharose, HRV3C cleavage, HiTrap Q)) MEDTYIDSLDPEKLLQCPYDKNHQIRACRFPYHLIKCRKNHPDVANKLATCPFNARHQVPRAEISHHISSCDDKSCIEQDVVNQTRNLGQETLAESTWQCPPCDEDWDKDLWEQTSTPFVWGTASFCGNNSPANNIVMEHKSNLASGMRVPKSLPYVLPWKNNGNAQ",,8
"GTSF1(W98A/W107A/W112A), mouse, PIWI-interacting mutant, purified recombinant (natural protein, UniProt Q9DAN6 1-167, looked up, Mouse GTSF1 with W98A, W107A and W112A; expression vector synthesized at Twist Biosciences; also called PIWI-int mutant GTSF1; source: E. coli Rosetta-Gami 2 (pCold-GST), purified (glutathione Sepharose, HRV3C cleavage, HiTrap Q)) MEDTYIDSLDPEKLLQCPYDKNHQIRACRFPYHLIKCRKNHPDVANKLATCPFNARHQVPRAEISHHISSCDDKSCIEQDVVNQTRNLGQETLAESTAQCPPCDEDADKDLAEQTSTPFVWGTASFCGNNSPANNIVMEHKSNLASGMRVPKSLPYVLPWKNNGNAQ",,500
